Measured values reported in paper PMC6901440, “Bcl-2 regulates pyroptosis and necroptosis by targeting BH3-like domains in GSDMD and MLKL” (Cell Death Discovery, 2019).

Molecular target: T1, Bcl-2 (endogenous, THP-1 cells) (human (endogenous in THP-1), UniProt P10415 1-239)
T1 construct: Bcl-2 (B-cell lymphoma 2), endogenous in the human macrophage cell line THP-1; immunoprecipitated with anti-Bcl-2 antibody; also called B-cell lymphoma 2; source: endogenous, THP-1 lysate
Test: co-IP; endogenous proteins; Bcl-2 immunoprecipitated from THP-1 lysates; cells basal or LPS 50 ng/ml 5 h + nigericin 5 uM 30 min (Fig. 1b); PMA treated cells with or without TNFa 20 ng/ml, 100 nM Smac mimetic, 20 uM z-VAD-FMK for 3 h (Fig. 5d); lysis buffer 20 mM HEPES pH 7.4, 0.5% Triton X-100, 0.5% CHAPS, 10% glycerol; washed eight times
Settings: partners not purified

T1 sequence (P10415 whole entry): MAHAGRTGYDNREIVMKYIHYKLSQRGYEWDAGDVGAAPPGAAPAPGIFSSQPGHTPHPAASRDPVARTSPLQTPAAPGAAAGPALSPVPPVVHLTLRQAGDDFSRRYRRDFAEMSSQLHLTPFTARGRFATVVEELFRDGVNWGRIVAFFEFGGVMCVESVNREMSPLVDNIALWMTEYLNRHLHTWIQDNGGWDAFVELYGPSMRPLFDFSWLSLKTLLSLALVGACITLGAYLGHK

B1: gasdermin D (endogenous, THP-1 cells) (natural protein, human (endogenous in THP-1), UniProt P57764 1-484, looked up)
chain: MGSAFERVVRRVVQELDHGGEFIPVTSLQSSTGFQPYCLVVRKPSSSWFWKPRYKCVNLSIKDILEPDAAEPDVQRGRSFHFYDAMDGQIQGSVELAAPGQAKIAGGAAVSDSSSTSMNVYSLSVDPNTWQTLLHERHLRQPEHKVLQQLRSRGDNVYVVTEVLQTQKEVEVTRTHKREGSGRFSLPGATCLQGEGQGHLSQKKTVTIPSGSTLAFRVAQLVIDSDLDVLLFPDKKQRTFQPPATGHKRSTSEGAWPQLPSGLSMMRCLHNFLTDGVPAEGAFTEDFQGLRAEVETISKELELLDRELCQLLLEGLEGVLRDQLALRALEEALEQGQSLGPVEPLDGPAGAVLECLVLSSGMLVPELAIPVVYLLGALTMLSETQHKLLAEALESQTLLGPLELVGSLLEQSAPWQERSTMSLPPGLLGNSWGEGAPAWVLLDECGLELGEDTPHVCWEPQAQGRMCALYASLALLSGLSQEPH
notes: gasdermin D (GSDMD), endogenous in the human macrophage cell line THP-1; also called GSDMD; source: endogenous, THP-1 lysate
- fold change of GSDMD associated with Bcl-2 after LPS and nigericin against basal conditions: 2.4 fold
